Tests used:
[1] = biological target: full-length human tissue factor with C-terminal RGS-His6 tag, stably expressed on CHO-K1 cells (human) (UniProt P13726); experiment: flow cytometry (FACScan) on stable CHO clone #TF34 expressing full-length hTF; first antibody 10 µg/ml, FITC-labeled goat anti-mouse IgG 1:50
[2] = biological target: full-length human tissue factor with C-terminal RGS-His6 tag, stably expressed on CHO-K1 cells (human) (UniProt P13726); experiment: flow cytometry (FACScan) on stable CHO clone #TF48 expressing full-length hTF; first antibody 10 µg/ml, FITC-labeled goat anti-mouse IgG 1:50

Sequence of full-length human tissue factor with C-terminal RGS-His6 tag, stably expressed on CHO-K1 cells (human) (P13726 other isoform, or with tags, fused parts or gaps): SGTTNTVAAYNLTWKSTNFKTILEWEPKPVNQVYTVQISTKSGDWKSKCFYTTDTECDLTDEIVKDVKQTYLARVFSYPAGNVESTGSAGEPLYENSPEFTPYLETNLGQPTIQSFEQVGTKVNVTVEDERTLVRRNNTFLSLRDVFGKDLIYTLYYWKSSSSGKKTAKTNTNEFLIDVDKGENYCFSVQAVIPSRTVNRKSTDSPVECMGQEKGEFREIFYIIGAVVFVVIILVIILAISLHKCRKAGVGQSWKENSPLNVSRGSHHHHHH

- % Total in marker M1 (negative gate) [1]: 0.42%
- % Total in marker M2 (positive gate) [1]: 99.4%
- Geo Mean (FL1-H), marker All [1]: 262
- Geo Mean (FL1-H), marker M1 [1]: 8.16
- Geo Mean (FL1-H), marker M2 [1]: 267
- % Total in marker M1 (negative gate) [2]: 0.99%
- % Total in marker M2 (positive gate) [2]: 98.9%
- Geo Mean (FL1-H), marker All [2]: 168
- Geo Mean (FL1-H), marker M1 [2]: 7.54
- Geo Mean (FL1-H), marker M2 [2]: 174
Substance: mouse anti-human TF mAb (Calbiochem, Cat. # 612161) (antibody)

Source: US20090081200A1
